We go through one molecule from patent US20100113291A1 (CENTRE NATIONAL DE LA RECHERCHE SCIENTIFIQUE, priority 2006, published 2010).

This assay is classed as biochemical. As to conditions: acetoacetyl-CoA and NADPH both at 100 μM.

B1: MabA-wt: wild-type protein MabA of Mycobacterium tuberculosis, SEQ ID NO: 1 (protein, listed as Mycobacterium tuberculosis)
chain: MTATATEGAKPPFVSRSVLVTGGNRGIGLAIAQRLAADGHKVAVTHRGSGAPKGLFGVECDVTDSDAVDRAFTAVEEHQGPVEVLVSNAGLSADAFLMRMTEEKFEKVINANLTGAFRVAQRASRSMQRNKFGRMIFIGSVSGSWGIGNQANYAASKAGVIGMARSIARELSKANVTANVVAPGYIDTDMTRALDERIQQGALQFIPAKRVGTPAEVAGVVSFLASEDASYISGAVIPVDGGMGMGH
B1 came in with a Vi of 0.60 ± 0.01 µmol/min/mg.
